Data as given in paper PMC11376147 (Chemical Science, 2024).

Molecular target: SARS-CoV-2 Spike glycoprotein (SARS-CoV-2) (UniProt P0DTC2)
Experiment: SPR

“DC-SIGN entire extracellular domain (ECD) (from UniProt Q9NNX6 59-404) (receptor)” showed an SPR response without ligand (the pair that is blocked) of 2500 RU.
With “L-SIGN entire extracellular domain (ECD) (from UniProt Q9H2X3 71-399) (receptor)” the SPR response without ligand (the pair that is blocked) was 2000 RU.
